Experimental data: paper PMC12705745

Target: T1, recombinant human C-reactive protein (human), P02741
T1 chain: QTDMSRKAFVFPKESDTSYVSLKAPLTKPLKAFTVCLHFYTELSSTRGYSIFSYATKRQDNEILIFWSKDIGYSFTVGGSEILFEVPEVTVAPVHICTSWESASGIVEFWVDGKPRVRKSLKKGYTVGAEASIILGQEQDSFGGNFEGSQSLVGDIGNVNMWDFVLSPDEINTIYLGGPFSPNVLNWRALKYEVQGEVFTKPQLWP
Assay: cryo-EM structure; hCRP 6 mg/ml incubated with 4.5 mM CPS23F on ice for ~1 h, 0.02% Tween-20; C5 symmetry applied during reconstruction; 2.78 Å
Conditions: remark: other sources report otherwise

- stoichiometry N: 5
B1: recombinant human C-reactive protein, P02741-1 19-224 (natural protein)
chain: T1 chain
